Test: soluble on expression in E. coli; label from the status in PepcDB or PDB records

Sequence | soluble on expression in E. coli
MSLIYFETERLIARDYLERDYLPFSQMNADEEVMKYFPARLTQVESNALLDRNQKELTSLGYGLFAIEVKSTNEFIGFTGLHEATFEAEFTPCIEIGWRLKRSAWNQGFATEAALGVLAFAKGITAINEIYSFTATCNKPSEKVMRKIHLTKIADFEHPALINGNPLKPHVLYKAEGHHHHHH | not soluble
GMKSAPDWIAHPDTPYLLIDEAKLKSNINYLKQRVESLGSHLRPHLKTLRTLEAAGYLLDSKSAPATVSTLAEAEAYAKAGYTDLLYAVGIAPAKLKRVAALRQQGINLHILLDNITQAQAVVDYAAEFGQDFSVFIEIDSDDHRGGIKPSDSKLLTIAKTLGEHFTGLMTHAGGSYACNTEQGLKNFAKQECDAVRIARNNLETAGIHCAITSVGSTPTAHFGEDFSDISEVRAGVYTTFDLVMKNIGVCDFSHIAMSVVTTVIGHNKEKNWLLTDSGWMALSRDSGTAGQNRDFGYGQVCKIDGSVLDGLCVNSTSQEHGVIELSDAYQLEDFPVGHQLRIMPNHACATAAMHPVYHVLMSDGSHNTWQRITGW | soluble
PELPEVETSRRGIEPHLVGATILHAVVRNGRLRWPVSEEIYRLSDQPVLSVQRRAKYLLLELPEGWIIIHLGMSGSLRILPEELPPEKHDHVDLVMSNGKVLRYTDPRRFGAWLWTKELEGHNVLTHLGPEPLSDDFNGEYLHQKCAKKKTAIKPWLMDNKLVVGVGNIYASESLFAAGIHPDRLASSLSLAECELLARVIKAVLLRSIEQGGTTLKDFLQSDGKPGYFAQELQVYGRKGEPCRVCGTPIVATKHAQRATFYCRQCQK | soluble
MGSDKIHHHHHHMIRMIRKFKVKGLRSPSLLIDMILNDTEEGILVVETDGEEQIKDIEKLLKKYNLKYEVDGNVVKIYVGEIKADKTINVVGATCPGPIMMVSDMLSKMKNGEILEIICGKNSLTDLTEGLKGMGNEIIKVEDKGDGTYRILVKKGEKKEEKAAVTKIDELFIINTTGTGNAEKAYATFMMADVALKMNLKPTIFLMMDGASLALKGECDRVKHPAFPKLGDLVRDILSKGVKIYVCELSAEFRGINEKNLEEGFEIAGAPTFLNYLSKPNVRPVWL | not soluble
MKRYGNLYQEIINFENILIASRQAQKSKRFRDNVLDFNYHLETELIKLQKHLTDKTYQPGAYRTFRLTNPKSRLISAAPYRDRVVHHALCNIIVPIFERAFVADSYANRIGFGTHRALKKFTHSARNSPYVLQCDIRKYFPSIDHIILKELIRRKIKCPDTLWLIDTIIDNSNEQETVIDYFAGDDLLSPITRRKGLPIGNLTSQFFANIYLNGFDKIIKEELKISKYVRYVDDFALFSDDRELLADARLAIEAYLAELRLKIHPIKSQLFETKIGATFLGFRIFSHKIRVRNSNLHQARRRLKRLKTDYAQGKLELNQVTQSMRSWIAHLEHGDTWRLRKQIFTSLHFRRKLEHHHHHH | soluble
MDESNVSQELLNSNRTEIARCVLLKDLVVMYGGYEVYANHVDLLMCFHQLMIVLAAPPIKPMQKEPGTLLPPRAVVYKLPAIKGSMKDAFSAHKLLKKSYAKPIVDISSTSGDSDPEWWSDRELTPDLNLKRELLLKKARFSRKTFDKRSSYIAHFKKSHLENYLNSDSDTVSNEKPKTLAQLKNFSKSNLVEYHPSMYRDVGVVIIFFSIYYYDLNSFKVNSEIEKQDKIFQEYKKWIFQSVQERRFVSKECTEPKVLSQLHVHVHQN | not soluble
MVRVPLTAEELERGQRLGELLRSARGDMSMVTVAFDAGISVETLRKIETGRIATPAFFTIAAVARVLDLSLDDVAAVVTFGPVSTS | soluble
MSLKKNFALEKKKELQEMTNSAVRRVLDFKKDPNKVIELLNFMARSPQYSFKNQMMVSSQYENSNFTMGSRQFKETMGLKVNENATPIKIVAPVMNTFFKRNDKLVQLRFANKEEKEKIKNKEIKTIQNVWYYKLVDVYDITQTNAKPEDFPEYYPDRRYNFYVKNTEVIDDIISANKKLLKDNNIHLIENHTYNQLGTSVGFAGKNLTGDKIVGYRDGLNKTEILHTLLHETTHAFYHQKENPEKTTELKEFEAEMTAYIVAKRFGVDTSEHTIKYVSDWTESMSKIEDIEQSIKTVSMYSSRIINDIEKQIDPVKIKEGHHHHHH | not soluble
MAFTEHSPLTPHRRDLCSRSIWLARKIRSDLTALTESYVKHQGLNKNINLDSADGMPVASTDQWSELTEAERLQENLQAYRTFHVLLARLLEDQQVHFTPTEGDFHQAIHTLLLQVAAFAYQIEELMILLEYKIPRNEADGMPINVGDGGLFEKKLWGLKVLQELSQWTVRSIHDLRFISSHQTGIP | soluble
MPFSISGRKGSEMMAKLDELKQKLTAKQIQAAYLLVENELMESNNEEKRTQDEMANELGINRTTLWEWRTKNQDFIAFKSEVADSFLAEKREQVYSKLMQLILGPQPSVKAMQLYMQRFGLLTDKKVIEGDLGNATRTNAEIEEQLQKLKKLTGE | soluble
MEEMMMNDPSAMVIYEEEVTTAPNLPCSLIQQRSWDEEKPIGYELTNTKCYKTPNGVQKTATIQREQLSTSKDFGEQQIVEMDGEFSIEGTDMHAIPCTSSSMQPSTSSNPSSGEHQPVPLRRMAIKIGQRVLRFKVISAEEAPEAPLDTQDSWINDPKPVTTPKALAGLYRCTNCKTYFGNKEVYQRHIQEVHGDARPFRCFNCGMRFANKTSMTHHLKDHSLLKPMFSCDYCPRIFSKLESKTRHHKMHFTRSTCQTCMRFFTTEDALRHHQSTAHPATFDSGPPPEDLLPNGKSARYSCSYCNLRFHFKKDMLVHERIHTGEKPYSCGYCMKSFAQSQALTAHIRTHTKELPYGCGKCDKRFRDNSCLRKHELAAHTDEPIVRPISVAYSNQVQKQMQRQRENRRKQELLIAERHPYRI | not soluble
MAFSASIEDYALIGDQQSAALVARDGSIDWLCLPRFDSPACFAALLGDEHNGKWRIAPKGAGPCTRRAYRTDSLVLDSEWDTPEGTLRVTDLMPQRDSAPDLVRIVEGLRGRVTVRSAIRLRFDYGLEHHHHHH | not soluble
MAHHHHHHMSKADENGNELMEIEEVAVSDGGAARFAAVDVKSGEERFNVIWQDSGKLMRFDEGENQWKERGQGTAKVLQRKDNTSKYMFVFRREGVGKLAAQHYLVKGMKVTKHKQGEKILVWSAFKDFTDDEEGFPENFVMRLSSKEAADKALAEMMGAIEKSSV | soluble
MAYQSKNTDEHVTFADALLSKRYRKAQNDFLNQVERLIDWRPIRTLINKKYTKRQNAIGAPAYDVILLFKMLLLETWYNLSDCALEERINDSITFSRFLGLKMEEVSPDHSTISRFRSALTELGLMDKLLAQFNKQLSRHHISVREGVLVDASLVETPHKPNGTITIEVADDREDNRSEAEKEAEEDYQKQVVRRRKGTDEEARWVYKQKRYHYGYKKHCLTNVQGIVQKVITTAANRSDTKEFIPLLQGANIPQGTAVLADKGYACGENRSYLQTHHLQDGIMHKAQRNRALTEEEKQGNKAISPIRSTIERTFGSIRRWFHGGRCRYRGLAKTHTQNILESIAFNLYRTPGIIMSSSLG | not soluble
MNCRGHETRQRIVRDFEVQPKAHIKLLANQQKHSDAGATIEDEYYVFIAESKIDGKKEVIQCCMGAARDFLELINHKGLPLFNPLVGDSHVNNRQEYDNTGSGNL | not soluble
MGSDKIHHHHHHMELVDKDLRSIQETRNLIRKAKEAQQVLATFSQKQIDAIVQAVSEATFNQREKLAKMANEETGFGIYEDKIIKNAFASKVVYDEMKDKATVGVIHDDAAKKVTEIAVPVGVIAGLIPSTNPTSTVIYKALISLKAANSIVFSPHPNALKSIIETVEIIQKAAIAAGAPEGCVSVIKTPTMQATSELMKNKETNLILATGGNAMVKAAYSSGTPAIGVGPGNGPAYIERSANVPHAVKQIMDSKTFDNGTICASEQSIIVETVNREAVKEELIKQGAYFLSPAEADKLAKFILRPNGTMNPQIVGRSVQHIASLVGLSIPKDRRLIVAEETHVGLKYPFSREKLAPIIAFYTVENWEAACALSIEILKGEGAGHTMGIHTENKEVIREFGLRKPVSRLLVNTSGTLGGIGASTNLVPALTLGCGAVGGSSTSDNIGVENLFNLRRVAYGVRDLEEIRQEFGQTSTTSVATSCETTNQEELVNAVVAQVLARLN | not soluble
MKQPFERILREICFMVKVEGRKVLRDFGITPAQFDILQKIYFEGPKRPGELSVLLGVAKSTVTGLVKRLEADGYLTRTPDPADRRAYFLVITRKGEEVIEKVIERRENFIEKITSDLGKEKSSKILDYLKELKGVMERNFSKQ | soluble
MGSDKIHHHHHHLCLIKPGLKVLEIGCGTGRVLKPLLESGASVVGVDISHEMLALAHNKLASFCDSGALRLLNHNFVYSSIPERFDRVFVTFYTFNYLLSYENALSFLKNIYSSMNDGAVLLMDMFFPSIYHNPAIEGKWQQRYLNLGAKQIRLSDRRTMRGPMEKREQVFEEDGGRQEITTLRRFYDKNETARLLREAGFSSVKFTDVYDSTLFHQLELLEATDRGFLVMGRREAGGGEG | not soluble
MGSDKIHHHHHHMNEAELLDPPLETPPRPAVKVRGEPLAELPQDLYIPPDALEVFLEAFEGPLDLLLYLIRKQNLDVLDIPMAALTQQYMAYVEAARATRLELAAEYLLMAAVLIDIKSRMLLPRREQADEPGEADDPRAELVRRLLEYEQMKRAGQQLDALPQAGRDFDTVSVFLPAAAKRLPSVHAEELAAAWLAILSRAKNRTHHRIGRQELSIREHMSRILKRLTPGEFMEFKELFPEASTVHELVVTFLAVLELSKETLLDVTQAEPFAPIYVKLHESAAE | not soluble
MGSDKIHHHHHHMDRIGIDTWANISAEGWSSLLLGNGASIAIHKEFAYPTLHGIADAKGLLATTAPIFAKLGTTDFEHVLLACWYAEHVNGALGTPSAAISAAYEEVRTALIEAVHSVHPVHADVAADLQRVGAFASAFPTVVSLNYDITLYWAMLLFNAANGSWFKDAFHDGEFQTDWEYLRRPYGHAAGATLVFYPHGSLAVARDYLGDETKLSVGAGAAGDLLGTITRRWASGHYVPVFVSEGTSHQKVAAIRRSHYLTNVYEEVLPALGESLVVYGWSFDERDQHVLAAIAANPPKRMAVSVFTGQPDGDQQAFCLQVLKAVGRSLPGTEVTFFDSRSPGCWNNP | not soluble
MSLSMDTVNYRPSAYPAISLIEADYRQFAFERHYHLDIHIGLITQGVQRFYHQGAWHQVGQGGVVLMSPDELHDGHAHSNTGYQVQVFSIEPEWLQQTLEANQIEQVIGFEQLIVQDPTLFHSLQQLHHLLRQDNLSQLAKDCLPYQGFAPLLERYSYLKQPTVKPLGQHNLALLKEWVLSQLDQPIRLEQLAQLCQLSPTQFQRHFKAQTGLTPYAWLRRLRLEQAMKLLQSGKPGTDVAYQVGFYDQAHFSKAFKATYGLSPSLITRFSEGHHHHHH | not soluble
KGDDNYYIIFTSGTTGQPKGVQISHDNLLSFTNWMIEDAAFDVPKQPQMLAQPPYSFDLSVMYWAPTLALGGTLFALPKELVADFKQLFTTIAQLPVGIWTSTPSFADMAMLSDDFCQAKMPALTHFYFDGEELTVSTARKLFERFPSAKIINAYGPTEATVALSAIEITREMVDNYT | not soluble

— the DeepSol protein solubility set
